Measured values from patent publication US20220119448A1 (ZHEJIANG DOER BIOLOGICS, published 2022).

Columns and labels:
[1] = molecular target: GLP-2R (GLP-2 receptor) on GLP-2R/Luc-CHO cells; experiment: cell-based or functional assay
VEGF [2] = molecular target: T1, VEGF (UniProt P15692-4 27-191, limits assumed, biotin-labelled (Sulfo-NHS biotin, molar ratio 2:1) in the BLI assay; unlabelled in the competition ELISA); experiment: BLI (Octet-QK), biotin-VEGF on SA probe; repeat 1
T1 construct: also called biotin-labeled VEGF
Text: (§1) The binding affinities of the fusion proteins were detected using BLI (Bio-layer inteferometry, ForteBio). […] Excess biotin not involved in labeling was removed by dialysis. […] The buffer used in the experiment was PBS (containing 0.1% Tween-20). […] Based on the program settings, the fusion proteins were bound, and then dissociated in PBST solution, to obtain the experimental curves. According to the result analysis software of Octet-QK, local full was used to fit the curves of the experimental results, then kon, kdis and Kd were determined.

VEGF [3] = molecular target: T1, VEGF; experiment: BLI (Octet-QK), biotin-VEGF on SA probe; repeat 2
Text: as §1

VEGF [4] = molecular target: T1, VEGF; experiment: BLI (Octet-QK), biotin-VEGF on SA probe; repeat 3
Text: as §1

VEGF [5] = molecular target: T1, VEGF; experiment: BLI (Octet-QK), biotin-VEGF on SA probe; average of 3 repeats (STD 0.05)
Text: as §1

VEGF [6] = molecular target: T1, VEGF; experiment: competition ELISA: inhibition of VEGF binding to plate-coated VEGF Receptor 2 (KDR)
Experimental: (§2) The plate was then blocked with 1% BSA/TBS and placed at 37° C. for 1 h; 1% BSA/TBS was added to the plate, 200 μL per well, and placed at 37° C. for 2 h.
(§3) Then, the stock solutions were diluted by 3 times to a total of 11 concentrations. […] The KDR-coated ELISA plate was washed twice and pat-dried. The mixture was successively transferred to the ELISA plate and placed at 37° C. for 1 h, then the plate was washed for 6 times. […] The plate was placed at 37° C. for 1 h and washed for 6 times. Then, goat anti-rat secondary antibody (Pierce, 31432, QA1969921) diluted at 1:1000 was added, 50 μL per well. The plate was placed at 37° C. for 1 h and washed for 6 times. Color developing solution was added after reaction, and the plated was incubated at 37° C. for 15 min. Stop buffer was added to terminate the color reaction. OD450 values were read on a microplate reader.

VEGF [7] = molecular target: T1, VEGF; experiment: competition ELISA: sample pre-mixed with VEGF, mixture put on a plate coated with VEGF Receptor 2 (KDR), bound VEGF detected with mouse anti-human VEGF antibody, OD450; blocked ligand-receptor pair VEGF/KDR
Experimental: as §2, §3

VEGF [8] = molecular target: T1, VEGF; experiment: BLI (Octet-QK), biotin-VEGF on SA probe; average of 3 repeats (STD 0.11)
Text: as §1

VEGF [9] = molecular target: T1, VEGF; experiment: BLI (Octet-QK), biotin-VEGF on SA probe; average of 3 repeats (STD 0.10)
Text: as §1

T1 sequence (P15692 other isoform, or with tags, fused parts or gaps limits assumed): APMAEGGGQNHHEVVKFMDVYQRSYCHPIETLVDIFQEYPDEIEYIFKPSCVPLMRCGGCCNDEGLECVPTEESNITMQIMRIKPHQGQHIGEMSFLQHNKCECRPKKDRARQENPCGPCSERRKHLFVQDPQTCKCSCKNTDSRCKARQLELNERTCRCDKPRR

| in vitro cytological activity, EC50 (luciferase reporter, GLP-2R/Luc-CHO cells) [1] [nM] | Kd (VEGF [2]) [nM] | Kd (VEGF [3]) [nM] | Kd (VEGF [4]) [nM] | Kd (VEGF [5]) [nM] | IC50 (VEGF [6]) [nM] | IC50 (read off the curve) (VEGF [7]) [nM] | Kd (VEGF [8]) [nM] | Kd (VEGF [9]) [nM] | Binder |
| --- | --- | --- | --- | --- | --- | --- | --- | --- | --- |
| 311 |  |  |  |  |  |  |  |  | GLP2G-PU98x43 (ligand) HGDGSFSDEMNTILDNLAARDFINWLIQTKITDAEPAAPAPAEPAAPAPEAPAAEPAAPAPAEPAAPAPEAPAAEPAAPAPAEPAAPAPEAPAAEPAAPAPAEPAAPAPEAPAAEPAAPAPAEPAAPAPEAPAAEPAAPAPAEPAAPAPEAPAAEPAAPAPAEPAAPAPEAPAAEPAAPAPAEPAAPAPEAPAAEPAAPAPAEPAAPAPEAPAAEPAAPAPAEPAAPAPEAPAAEPAAPAPAEPAAPAPEAPAAEPAAPAPAEPAAPAPEAPAAEPAAPAPAEPAAPAPEAPAAEPAAPAPAEPAAPAPEAPAAEPAAPAPAEPAAPAPEAPAAEPAAPAPAEPAAPAPEAPAAEPAAPAPAEPAAPAPEAPAAEPAAPAPAEPAAPAPEAPAAEPAAPAPAEPAAPAPEAPAAEPAAPAPAEPAAPAPEAPAAEPAAPAPAEPAAPAPEAPAAEPAAPAPAEPAAPAPEAPAAEPAAPAPAEPAAPAPEAPAAEPAAPAPAEPAAPAPEAPAAEPAAPAPAEPAAPAPEAPAAEPAAPAPAEPAAPAPEAPAAEPAAPAPAEPAAPAPEAPAAEPAAPAPAEPAAPAPEAPAAEPAAPAPAEPAAPAPEAPAAEPAAPAPAEPAAPAPEAPAAEPAAPAPAEPAAPAPEAPAAEPAAPAPAEPAAPAPEAPAAEPAAPAPAEPAAPAPEAPAAEPAAPAPAEPAAPAPEAPAAEPAAPAPAEPAAPAPEAPAAEPAAPAPAEPAAPAPEAPAAEPAAPAPAEPAAPAPEAPAAEPAAPAPAEPAAPAPEAPAAEPAAPAPAEPAAPAPEAPAAEPAAPAPAEPAAPAPEAPAAEPAAPAPAEPAAPAPEAPAAEPAAPAPAEPAAPAPEAPAAEPAAPAPAEPAAPAPEAPA |
|  | 0.62 | 0.61 | 0.7 | 0.64 | 0.55 | ~0.3 |  |  | PU73x49-ARVEGF (designed binder, also called PU-ARVEGF fusion protein) APAEAPAAAEEAPPAEPAPEAPAEAPAAAEEAPPAEPAPEAPAEAPAAAEEAPPAEPAPEAPAEAPAAAEEAPPAEPAPEAPAEAPAAAEEAPPAEPAPEAPAEAPAAAEEAPPAEPAPEAPAEAPAAAEEAPPAEPAPEAPAEAPAAAEEAPPAEPAPEAPAEAPAAAEEAPPAEPAPEAPAEAPAAAEEAPPAEPAPEAPAEAPAAAEEAPPAEPAPEAPAEAPAAAEEAPPAEPAPEAPAEAPAAAEEAPPAEPAPEAPAEAPAAAEEAPPAEPAPEAPAEAPAAAEEAPPAEPAPEAPAEAPAAAEEAPPAEPAPEAPAEAPAAAEEAPPAEPAPEAPAEAPAAAEEAPPAEPAPEAPAEAPAAAEEAPPAEPAPEAPAEAPAAAEEAPPAEPAPEAPAEAPAAAEEAPPAEPAPEAPAEAPAAAEEAPPAEPAPEAPAEAPAAAEEAPPAEPAPEAPAEAPAAAEEAPPAEPAPEAPAEAPAAAEEAPPAEPAPEAPAEAPAAAEEAPPAEPAPEAPAEAPAAAEEAPPAEPAPEAPAEAPAAAEEAPPAEPAPEAPAEAPAAAEEAPPAEPAPEAPAEAPAAAEEAPPAEPAPEAPAEAPAAAEEAPPAEPAPEAPAEAPAAAEEAPPAEPAPEAPAEAPAAAEEAPPAEPAPEAPAEAPAAAEEAPPAEPAPEAPAEAPAAAEEAPPAEPAPEAPAEAPAAAEEAPPAEPAPEAPAEAPAAAEEAPPAEPAPEAPAEAPAAAEEAPPAEPAPEAPAEAPAAAEEAPPAEPAPEAPAEAPAAAEEAPPAEPAPEAPAEAPAAAEEAPPAEPAPEAPAEAPAAAEEAPPAEPAPEAPAEAPAAAEEAPPAEPAPEAPAEAPAAAEEAPPAEPAPEAPAEAPAAAEEAPPAEPAPEAPAEAPAAAEEAPPAEPAPEAPAEAPAAAEEAPPAEPAPEAPAEAPAAAEEAPPAEPAPEAPAEAPAAAEEAPPAEPAPEGSDLDKKLLEAARAGQDDEVRILMANGADVNARDSTGWTPLHLAAPWGHPEIVEVLLKNGADVNAADFQGWTPLHLAAAVGHLEIVEVLLKYGADVNAQDKFGKTAFDISIDNGNEDLAEILQKAA |
|  | 0.63 | 0.49 | 0.42 |  | 0.51 | ~0.3 | 0.51 |  | PU98x43-ARVEGF (designed binder, also called PU-ARVEGF fusion protein) AEPAAPAPAEPAAPAPEAPAAEPAAPAPAEPAAPAPEAPAAEPAAPAPAEPAAPAPEAPAAEPAAPAPAEPAAPAPEAPAAEPAAPAPAEPAAPAPEAPAAEPAAPAPAEPAAPAPEAPAAEPAAPAPAEPAAPAPEAPAAEPAAPAPAEPAAPAPEAPAAEPAAPAPAEPAAPAPEAPAAEPAAPAPAEPAAPAPEAPAAEPAAPAPAEPAAPAPEAPAAEPAAPAPAEPAAPAPEAPAAEPAAPAPAEPAAPAPEAPAAEPAAPAPAEPAAPAPEAPAAEPAAPAPAEPAAPAPEAPAAEPAAPAPAEPAAPAPEAPAAEPAAPAPAEPAAPAPEAPAAEPAAPAPAEPAAPAPEAPAAEPAAPAPAEPAAPAPEAPAAEPAAPAPAEPAAPAPEAPAAEPAAPAPAEPAAPAPEAPAAEPAAPAPAEPAAPAPEAPAAEPAAPAPAEPAAPAPEAPAAEPAAPAPAEPAAPAPEAPAAEPAAPAPAEPAAPAPEAPAAEPAAPAPAEPAAPAPEAPAAEPAAPAPAEPAAPAPEAPAAEPAAPAPAEPAAPAPEAPAAEPAAPAPAEPAAPAPEAPAAEPAAPAPAEPAAPAPEAPAAEPAAPAPAEPAAPAPEAPAAEPAAPAPAEPAAPAPEAPAAEPAAPAPAEPAAPAPEAPAAEPAAPAPAEPAAPAPEAPAAEPAAPAPAEPAAPAPEAPAAEPAAPAPAEPAAPAPEAPAAEPAAPAPAEPAAPAPEAPAAEPAAPAPAEPAAPAPEAPAAEPAAPAPAEPAAPAPEAPAAEPAAPAPAEPAAPAPEAPAAEPAAPAPAEPAAPAPEAPAAEPAAPAPAEPAAPAPEAPAAEPAAPAPAEPAAPAPEAPAGSDLDKKLLEAARAGQDDEVRILMANGADVNARDSTGWTPLHLAAPWGHPEIVEVLLKNGADVNAADFQGWTPLHLAAAVGHLEIVEVLLKYGADVNAQDKFGKTAFDISIDNGNEDLAEILQKAA |
|  | 0.58 | 0.69 | 0.77 |  | 0.65 | ~0.3 |  | 0.68 | ankyrin repeat protein binding to VEGF (ARVEGF) (designed binder, Its preparation and any tag are not described) GSDLDKKLLEAARAGQDDEVRILMANGADVNARDSTGWTPLHLAAPWGHPEIVEVLLKNGADVNAADFQGWTPLHLAAAVGHLEIVEVLLKYGADVNAQDKFGKTAFDISIDNGNEDLAEILQKAA |
